Results taken from publication PMC1635305 (Nucleic Acids Research, 2006).
Like-named read-outs stand apart in the source and are kept apart here.

Tests used:
[1] = target: the molecule itself; experiment: negative-stain electron microscopy single-particle reconstruction
[2] = target: the molecule itself; experiment: as above; remark: listed apart in the source

B1: Methanothermobacter thermautotrophicus MCM (natural protein, UniProt O27798 1-666, looked up)
chain: MMKTVDKSKTLTKFEEFFSLQDYKDRVFEAIEKYPNVRSIEVDYLDLEMFDPDLADLLIEKPDDVIRAAQQAIRNIDRLRKNVDLNIRFSGISNVIPLRELRSKFIGKFVAVDGIVRKTDEIRPRIVKAVFECRGCMRHHAVTQSTNMITEPSLCSECGGRSFRLLQDESEFLDTQTLKLQEPLENLSGGEQPRQITVVLEDDLVDTLTPGDIVRVTGTLRTVRDERTKRFKNFIYGNYTEFLEQEFEELQISEEDEEKIKELAGDPNIYEKIIRSTAPSIHGYREVKEAIALQLFGGTGKELDDKTRLRGDIHILIVGDPGIGKSQMLKYVSKLAPRGIYTSGKGTSGVGLTAAAVRDEFGGWSLEAGALVLGDKGNVCVDELDKMREEDRSAIHEALEQQTISIAKAGIMATLNSRCSVLAAANPKFGRFDSYKSIAEQIDLPSTILSRFDLIFVVEDKPDEEKDRELARHILKTHKEDHMPFEIDPELLRKYIAYARKNVRPVLTDEAMQVLEDFYVSMRASAADEDSPVPITARQLEALVRLSEASAKIKLKEHVEAEDARKAIKLSQACLKQVGYDPETGKIDIDKVEGRTPKSERDKFRLLLELIKEYEDDYGGRAPTNILITEMMDRYNVSEEKVEELIRILKDKGAIFEPARGYLKIV
B1 was tested, and the “stoichiometry N” value [1] was 14 and the “stoichiometry N” value [2] was 12.
